{"source": "patent US20120244144A1", "about": "(University of Texas, published 2012)", "key": {"PTx-S1A (1-220)": {"target": "T1, PTx-S1A (1-220) (Bordetella pertussis, UniProt P04977 36-255, M194I)", "T1 sequence": "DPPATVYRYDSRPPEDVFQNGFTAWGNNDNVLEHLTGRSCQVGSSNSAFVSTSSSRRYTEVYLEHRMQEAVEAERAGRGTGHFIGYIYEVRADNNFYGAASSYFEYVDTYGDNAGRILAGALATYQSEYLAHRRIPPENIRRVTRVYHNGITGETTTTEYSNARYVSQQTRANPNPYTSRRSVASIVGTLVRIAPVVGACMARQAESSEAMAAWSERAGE", "assay": "SPR"}, "PTx-S1D (1-220)": {"target": "T2, PTx-S1D (1-220) (Bordetella pertussis, UniProt P04977 35-254)", "T2 chain": "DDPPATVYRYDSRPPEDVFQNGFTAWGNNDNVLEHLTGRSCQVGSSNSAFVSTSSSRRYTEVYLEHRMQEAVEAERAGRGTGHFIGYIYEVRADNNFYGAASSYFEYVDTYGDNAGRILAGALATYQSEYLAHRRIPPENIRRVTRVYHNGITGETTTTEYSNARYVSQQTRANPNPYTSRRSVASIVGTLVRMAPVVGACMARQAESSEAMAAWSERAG", "assay": "SPR"}, "PTx-S1-220 N176A": {"target": "T3, PTx-S1-220 N176A (Bordetella pertussis strain Tohama I, UniProt P04977 36-255)", "T3 chain": "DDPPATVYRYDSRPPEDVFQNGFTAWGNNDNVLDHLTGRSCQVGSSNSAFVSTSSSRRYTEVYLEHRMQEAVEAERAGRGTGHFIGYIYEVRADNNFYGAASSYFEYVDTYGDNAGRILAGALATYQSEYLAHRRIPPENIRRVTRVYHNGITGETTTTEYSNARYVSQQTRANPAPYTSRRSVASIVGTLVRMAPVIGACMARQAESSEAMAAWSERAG", "assay": "SPR, mAb 1B7 immobilised ~1000 RU"}, "PTx-S1-220 E155A": {"target": "T4, PTx-S1-220 E155A (Bordetella pertussis strain Tohama I, UniProt P04977 36-255, E155A)", "T4 sequence": "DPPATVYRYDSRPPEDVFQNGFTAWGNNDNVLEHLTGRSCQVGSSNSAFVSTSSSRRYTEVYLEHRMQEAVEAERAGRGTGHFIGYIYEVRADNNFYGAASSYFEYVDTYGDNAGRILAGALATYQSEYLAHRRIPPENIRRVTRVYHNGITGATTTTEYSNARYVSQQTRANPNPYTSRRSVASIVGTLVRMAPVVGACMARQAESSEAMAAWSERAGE", "assay": "SPR, mAb 1B7 immobilised ~1000 RU"}, "PTx-S1-220 Y161A": {"target": "T5, PTx-S1-220 Y161A (Bordetella pertussis strain Tohama I, UniProt P04977 36-255, Y161A)", "T5 sequence": "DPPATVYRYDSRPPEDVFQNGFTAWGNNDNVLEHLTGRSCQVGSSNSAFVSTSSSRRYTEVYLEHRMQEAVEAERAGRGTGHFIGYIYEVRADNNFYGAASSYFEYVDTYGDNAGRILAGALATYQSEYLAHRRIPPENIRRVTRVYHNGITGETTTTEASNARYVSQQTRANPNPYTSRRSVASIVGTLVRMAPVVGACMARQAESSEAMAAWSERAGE", "assay": "SPR, mAb 1B7 immobilised ~1000 RU"}, "PTx-S1-220 Y166A": {"target": "T6, PTx-S1-220 Y166A (Bordetella pertussis strain Tohama I, UniProt P04977 36-255, Y166A)", "T6 sequence": "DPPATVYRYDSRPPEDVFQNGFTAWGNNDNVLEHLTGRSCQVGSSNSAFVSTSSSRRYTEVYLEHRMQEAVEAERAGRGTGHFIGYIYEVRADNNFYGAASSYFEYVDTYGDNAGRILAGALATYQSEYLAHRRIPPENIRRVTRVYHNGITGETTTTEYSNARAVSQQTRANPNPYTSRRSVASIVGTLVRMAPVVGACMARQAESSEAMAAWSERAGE", "assay": "SPR, mAb 1B7 immobilised ~1000 RU"}, "PTx-S1-220 R39A": {"target": "T7, PTx-S1-220 R39A (Bordetella pertussis strain Tohama I, UniProt P04977 36-255, R39A)", "T7 sequence": "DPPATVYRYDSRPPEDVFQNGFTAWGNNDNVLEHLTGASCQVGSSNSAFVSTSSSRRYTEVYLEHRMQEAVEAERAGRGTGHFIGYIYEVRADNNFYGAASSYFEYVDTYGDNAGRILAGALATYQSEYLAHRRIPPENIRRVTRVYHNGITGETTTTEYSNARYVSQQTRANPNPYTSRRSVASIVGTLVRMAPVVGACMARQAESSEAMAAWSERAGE", "assay": "SPR, mAb 1B7 immobilised ~1000 RU"}, "PTx-S1-220 T153A": {"target": "T8, PTx-S1-220 T153A (Bordetella pertussis strain Tohama I, UniProt P04977 36-255, T153A)", "T8 sequence": "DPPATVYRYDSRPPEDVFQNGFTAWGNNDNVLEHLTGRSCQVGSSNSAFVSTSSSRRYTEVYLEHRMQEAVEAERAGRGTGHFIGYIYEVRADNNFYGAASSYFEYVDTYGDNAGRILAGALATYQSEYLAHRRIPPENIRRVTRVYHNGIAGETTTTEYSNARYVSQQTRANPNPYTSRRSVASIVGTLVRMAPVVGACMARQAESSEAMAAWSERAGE", "assay": "SPR, mAb 1B7 immobilised ~1000 RU"}, "PTx-S1-220 R79A": {"target": "T9, PTx-S1-220 R79A (Bordetella pertussis strain Tohama I, UniProt P04977 36-255, R79A)", "T9 sequence": "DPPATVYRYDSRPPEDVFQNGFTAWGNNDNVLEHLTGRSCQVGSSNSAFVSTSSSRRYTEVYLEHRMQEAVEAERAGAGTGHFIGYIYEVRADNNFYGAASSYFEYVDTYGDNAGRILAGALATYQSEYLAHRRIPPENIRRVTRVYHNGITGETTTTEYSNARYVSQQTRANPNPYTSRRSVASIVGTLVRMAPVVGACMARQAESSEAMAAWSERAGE", "assay": "SPR, mAb 1B7 immobilised ~1000 RU"}, "PTx-S1-220 Y148A": {"target": "T10, PTx-S1-220 Y148A (Bordetella pertussis strain Tohama I, UniProt P04977 36-255, Y148A)", "T10 sequence": "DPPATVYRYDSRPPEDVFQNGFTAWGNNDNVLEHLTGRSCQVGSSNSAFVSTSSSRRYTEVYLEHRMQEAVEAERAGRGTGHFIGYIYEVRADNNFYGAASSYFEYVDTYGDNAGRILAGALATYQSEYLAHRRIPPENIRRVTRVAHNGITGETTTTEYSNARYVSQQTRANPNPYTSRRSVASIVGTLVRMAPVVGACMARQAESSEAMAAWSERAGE", "assay": "SPR, mAb 1B7 immobilised ~1000 RU"}}}
{"binder": "monoclonal antibody 1B7 (antibody, also called mAb 1B7; 1B7 mAb) DIQMTQSPALMSASPGEKVTMTCSASSSVSFMYWYQQKPRSSPKPWIYLTSNLPSGVPARFSGSGSGTSYSLTISSMEAEDAATYYCQQWSSHPPTFGSGTKLEIKRGGGGSGGGGSGGGGSGGGGSEVQLQQSGSELVRPGASVKLSCKASGYKFTSYWMHWVKQRPGQGLEWIGNIFPGSGSTNYDEKFNSKATLTVDTSSNTAYMQLSSLTSEDSAVYYCTRWLSGAYFDYWGQGTTLTVSSASGA", "values": [{"measurement": "fold decrease in off-rate versus WT PTx-S1-220", "setting": "PTx-S1A (1-220)", "value": "~2", "unit": "fold"}, {"measurement": "fold decrease in off-rate versus WT PTx-S1-220", "setting": "PTx-S1D (1-220)", "value": "~2", "unit": "fold"}, {"measurement": "koff", "setting": "PTx-S1-220 N176A", "value": 0.0011, "unit": "s⁻¹"}, {"measurement": "koff", "setting": "PTx-S1-220 E155A", "value": 0.0011, "unit": "s⁻¹"}, {"measurement": "koff", "setting": "PTx-S1-220 Y161A", "value": 0.0013, "unit": "s⁻¹"}, {"measurement": "koff", "setting": "PTx-S1-220 Y166A", "value": 0.0014, "unit": "s⁻¹"}, {"measurement": "koff", "setting": "PTx-S1-220 R39A", "value": 0.003, "unit": "s⁻¹"}, {"measurement": "koff", "setting": "PTx-S1-220 T153A", "value": 0.002, "unit": "s⁻¹"}, {"measurement": "koff", "setting": "PTx-S1-220 R79A", "value": 0.025, "unit": "s⁻¹"}, {"measurement": "koff", "setting": "PTx-S1-220 Y148A", "value": 0.029, "unit": "s⁻¹"}]}
